One data set has as its system biotinyl-Ile-oxazolone. The data set can be described thus: self-aminoacylation, catalytic enhancement (BIO) (fold over background); higher = more active; k-Seq, kA / k0A0; sequences stand for … in GGGAAUGGAUCCACAUCUACGAAUUC…UUCACUGCAGACUUGACGAAGCUG
The gist of the method:
(§1)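 Working in 50 μL HEPES/NaCl/KCl/MgCl2/CaCl2 buffer with 5% acetonitrile at pH 6.9–7.0, mutagenized RNA pools (0.43 μM; 21-nt variable region) were reacted with 2–1250 μM of each biotinyl-aminoacyl-oxazolone for 90 minutes at room temperature. Streptavidin capture followed, with quantification by triplicate qPCR and Illumina sequencing. Catalytic enhancement is reported as median kA over the uncatalyzed rate, the low-activity peak of a bimodal Gaussian fit to the data.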

Another data set has as its system biotinyl-Val-oxazolone. The data set can be described thus: self-aminoacylation, catalytic enhancement (BVO) (fold over background); higher = more active; k-Seq, kA / k0A0; sequences stand for … in GGGAAUGGAUCCACAUCUACGAAUUC…UUCACUGCAGACUUGACGAAGCUG
The method, boiled down: as §1

In another data set the test system is biotinyl-Phe-oxazolone. The data set can be described thus: self-aminoacylation, catalytic enhancement (BFO) (fold over background); higher = more active; k-Seq, kA / k0A0; sequences stand for … in GGGAAUGGAUCCACAUCUACGAAUUC…UUCACUGCAGACUUGACGAAGCUG
The gist of the method: as §1

For another data set, the system named is biotinyl-Trp-oxazolone. The experiment in a line: self-aminoacylation, catalytic enhancement (BWO) (fold over background); higher = more active; k-Seq, kA / k0A0; sequences stand for … in GGGAAUGGAUCCACAUCUACGAAUUC…UUCACUGCAGACUUGACGAAGCUG
The method, boiled down: as §1

The test system of a further data set is biotinyl-Met-oxazolone. The data set can be described thus: self-aminoacylation, catalytic enhancement (BMO) (fold over background); higher = more active; k-Seq, kA / k0A0; sequences stand for … in GGGAAUGGAUCCACAUCUACGAAUUC…UUCACUGCAGACUUGACGAAGCUG
The method, boiled down:
as §1

For the next data set, the system named is biotinyl-Leu-oxazolone. The experiment in a line: self-aminoacylation, catalytic enhancement (BLO) (fold over background); higher = more active; k-Seq, kA / k0A0; sequences stand for … in GGGAAUGGAUCCACAUCUACGAAUUC…UUCACUGCAGACUUGACGAAGCUG
The method, boiled down:
as §1

Fewer inactive variants are shown than the library holds.

As for “UUUCAACUAGGUCAUCGGGUG [Fam2.2 aminoacylation ribozyme variant]”, the self-aminoacylation with biotinyl-Ile-oxazolone worked out at 3.58; in the data set with biotinyl-Val-oxazolone it was 3.67; with biotinyl-Phe-oxazolone, 35.7; with biotinyl-Trp-oxazolone, 5.22; in the data set on biotinyl-Met-oxazolone, 5.1; in the data set with biotinyl-Leu-oxazolone it was 5.6.

For “UUUCACCUAAGUCAUCGGGUG [Fam2.2 aminoacylation ribozyme variant]”, the self-aminoacylation with biotinyl-Ile-oxazolone was found to be 5.08; in the data set with biotinyl-Val-oxazolone it was 5.74; in the data set on biotinyl-Phe-oxazolone, 51.6; in the data set on biotinyl-Trp-oxazolone it was 8.11; in the data set on biotinyl-Met-oxazolone it was 7.38; in the data set with biotinyl-Leu-oxazolone it was 9.35.

“UUUCACCUAGGUCAGCGGGUG [Fam2.2 aminoacylation ribozyme variant]”: the self-aminoacylation in the data set on biotinyl-Ile-oxazolone came out at 3.75; with biotinyl-Val-oxazolone, 3.92; in the data set on biotinyl-Phe-oxazolone, 24.2; in the data set on biotinyl-Trp-oxazolone it was 5.12; with biotinyl-Met-oxazolone it was 4.92; with biotinyl-Leu-oxazolone, 5.53.

For “UUUCACCUAGGUCAUAGGGUG [Fam2.2 aminoacylation ribozyme variant]”, the self-aminoacylation in the data set with biotinyl-Ile-oxazolone worked out at 1.41; in the data set on biotinyl-Val-oxazolone, 1.3; in the data set on biotinyl-Phe-oxazolone, 1.69; in the data set with biotinyl-Trp-oxazolone, 1.23; in the data set with biotinyl-Met-oxazolone, 1.28; with biotinyl-Leu-oxazolone, 1.38.

Take “UUUCACCUAGGUCAUCGCGUG [Fam2.2 aminoacylation ribozyme variant]”: the self-aminoacylation was 6.66 in the data set on biotinyl-Ile-oxazolone; 6.67 in the data set on biotinyl-Val-oxazolone; 84 with biotinyl-Phe-oxazolone; 9.42 in the data set with biotinyl-Trp-oxazolone; 9.16 with biotinyl-Met-oxazolone; 11.4 in the data set with biotinyl-Leu-oxazolone.

In the case of “UUUCACCUAGGUCAUCGGAUG [Fam2.2 aminoacylation ribozyme variant]”, the self-aminoacylation was 1.1 in the data set with biotinyl-Ile-oxazolone; 1.36 with biotinyl-Val-oxazolone; 0.842 with biotinyl-Phe-oxazolone; 1.12 in the data set with biotinyl-Trp-oxazolone; 0.898 in the data set with biotinyl-Met-oxazolone; 0.998 in the data set on biotinyl-Leu-oxazolone.

On to “UUUCACCUAGGUCAUGGGGUG [Fam2.2 aminoacylation ribozyme variant]”, for which the self-aminoacylation was 3.19 in the data set on biotinyl-Ile-oxazolone; 2.96 in the data set on biotinyl-Val-oxazolone; 29.1 with biotinyl-Phe-oxazolone; 4.25 in the data set with biotinyl-Trp-oxazolone; 3.8 in the data set with biotinyl-Met-oxazolone; 4.07 with biotinyl-Leu-oxazolone.

For the sequence “UUUCACCUAUGUCAUCGGGUG [Fam2.2 aminoacylation ribozyme variant]”, the self-aminoacylation in the data set on biotinyl-Ile-oxazolone came out at 3.35; in the data set with biotinyl-Val-oxazolone it was 3.56; in the data set with biotinyl-Phe-oxazolone, 31.4; in the data set on biotinyl-Trp-oxazolone, 5.28; with biotinyl-Met-oxazolone, 4.6; in the data set with biotinyl-Leu-oxazolone, 5.1.

Source of the values: the supplement of paper PMC9233669.
